Patent US20240182561A1, “CALCIUM VOLTAGE-GATED CHANNEL AUXILIARY SUBUNIT GAMMA 1 (CACNG1) BINDING PROTEINS AND CACNG1-MEDIATED DELIVERY TO SKELETAL MUSCLE” (Regeneron Pharmaceuticals, Inc., priority 2022, published 2024)

T1: HEK293/mCACNG1 (Mus musculus, UniProt O70578)
T1 construct: mouse CACNG1 (mCACNG1); expressed in transfected cells
T1 sequence (O70578 1-223): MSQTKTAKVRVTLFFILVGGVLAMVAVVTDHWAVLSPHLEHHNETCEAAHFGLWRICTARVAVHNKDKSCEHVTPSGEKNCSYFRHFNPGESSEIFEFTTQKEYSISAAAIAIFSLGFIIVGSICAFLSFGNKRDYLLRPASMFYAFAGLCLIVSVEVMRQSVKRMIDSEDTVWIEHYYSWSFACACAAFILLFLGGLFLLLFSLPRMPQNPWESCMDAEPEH

B1: H1M31941N (antibody)
heavy: QVQLVQSGAEVKKPGASVKVSCKASGYAFTTYGITWVRQAPGQGLEWMGWISAYNGNTNYAEKVQGRFTMTTDTSTNTAYMELRSLRSDDTAVYFCARKGHYGSGTYYNPFGFDFWGQGTMVTVSSAKTTPPSVYPLAPGSAAQTNSMVTLGCLVKGYFPEPVTVTWNSGSLSSGVHTFPAVLQSDLYTLSSSVTVPSSTWPSETVTCNVAHPASSTKVDKKIVPRDCGCKPCICTVPEVSSVFIFPPKPKDVLTITLTPKVTCVVVDISKDDPEVQFSWFVDDVEVHTAQTQPREEQFNSTFRSVSELPIMHQDWLNGKEFKCRVNSAAFPAPIEKTISKTKGRPKAPQVYTIPPPKEQMAKDKVSLTCMITDFFPEDITVEWQWNGQPAENYKNTQPIMDTDGSYFVYSKLNVQKSNWEAGNTFTCSVLHEGLHNHHTEKSLSHSPGK
light: EIMLMQSPGTLSLSPGERATLSCRASQSVSSSYLAWYQQKPGQAPRLLIYGASSRATDIPDRFSGSGSGTDFTLTISRLEPEDFAVYFCQQYYGSPWTFGQGTKVEIKRADAAPTVSIFPPSSEQLTSGGASVVCFLNNFYPKDINVKWKIDGSERQNGVLNSWTDQDSKDSTYSMSSTLTLTKDEYERHNSYTCEATHKTSTSPIVKSFNRGEC
B2: H2aM31941N: anti-CACNG1 antibody; HCVR SEQ ID NO: 25, LCVR SEQ ID NO: 29, HC SEQ ID NO: 151, LC SEQ ID NO: 152 (antibody)
heavy: QVQLVQSGAEVKKPGASVKVSCKASGYAFTTYGITWVRQAPGQGLEWMGWISAYNGNTNYAEKVQGRFTMTTDTSTNTAYMELRSLRSDDTAVYFCARKGHYGSGTYYNPFGFDFWGQGTMVTVSSAKTTPPSVYPLAPGSAAQTNSMVTLGCLVKGYFPEPVTVTWNSGSLSSGVHTFPAVLQSDLYTLSSSVTVPSSTWPSETVTCNVAHPASSTKVDKKIVPRDCGCKPCICTVPEVSSVFIFPPKPKDVLTITLTPKVTCVVVDISKDDPEVQFSWFVDDVEVHTAQTQPREEQFNSTFRSVSELPIMHQDWLNGKEFKCRVNSAAFPAPIEKTISKTKGRPKAPQVYTIPPPKEQMAKDKVSLTCMITDFFPEDITVEWQWNGQPAENYKNTQPIMDTDGSYFVYSKLNVQKSNWEAGNTFTCSVLHEGLHNHHTEKSLSHSPGK
light: EIMLMQSPGTLSLSPGERATLSCRASQSVSSSYLAWYQQKPGQAPRLLIYGASSRATDIPDRFSGSGSGTDFTLTISRLEPEDFAVYFCQQYYGSPWTFGQGTKVEIKRADAAPTVSIFPPSSEQLTSGGASVVCFLNNFYPKDINVKWKIDGSERQNGVLNSWTDQDSKDSTYSMSSTLTLTKDEYERHNSYTCEATHKTSTSPIVKSFNRGEC

Key:
HEK293 = assay: Indirect (secondary) cell killing assay; assay type: cell-based, human; settings: Table 11-3; maximum % kill
Source text: (§1) To test the ability of anti-CACNG1 antibodies described herein to bind, internalize, and deliver payloads, cell binding and indirect cell killing assays were developed with primary human skeletal myoblasts (Cook Myosite Cat #SkMDC SK-1111), C2C12 mouse myoblasts (ATCC Cat #CRL-1772), and HEK293 cells engineered to express human and mouse CACNG1 (HEK293/hCACNG1 and HEK293/mCACNG1, respectively). To generate the HEK293/hCACNG1 and HEK293/mCACNG1 cell lines, FuGEGE 6 (Promega, Cat #E2691/5/3) was used to transfect HEK293HZ cells with a human CACNG1 (hCACNG1; amino acid M1-H222, Accession #NP_000718.1) or mouse CACNG1 (mCACNG1; amino acid M1-H223, Accession #NP_031608.1) expression vector. HEK293HZ is a highly transfectable subclone of HEK293 cells (1) authenticated via STIR (short tandem repeat) profiling to be 81% identical to HEK293 cells sourced from ATCC). […]
An indirect cell killing assay was used to assess the ability of anti-CACNG1 antibodies to internalize and deliver payloads into cells. In vitro cytotoxicity of the anti-CACNG1 antibodies alone or in combination with Fab anti-human Fc or Fab anti-mouse Fc secondary antibodies conjugated to Duocarmycin DM (Moradec, Cat #AH-202-DD-50 or Cat #AM-202-DD-50) were evaluated using the CellTiter-Glo 2.0 Assay Kit (Promega, Cat #G9243), in which the quantity of ATP present is used to determine the number of viable cells in culture. […]

HEK293 Hz = assay: High content imaging-based cell binding assay; parameters: species or system human; settings: Table 11-1, HEK293 Hz; NB = no binding detected
Source text: as §1, with “ATCC). The HEK293HZ cell line was maintained in DMEM+10% FBS+1% L-glutamine/penicillin/streptomycin, while HEK293/hCACNG1 and HEK293/mCACNG1 cell lines were maintained in DMEM+10% FBS+1% L-glutamine/penicillin/streptomycin+500 ug/mL G418.” for “ATCC).”
(§2) Relative binding of anti-CACNG1 antibodies was assessed across the entire panel of cell lines via imaging analysis. […] Images were acquired with a 10× objective on the Opera Phenix (Perkin Elmer) and relative fluorescence units (RFU) was determined using Harmony software (Perkin Elmer).

C2C12 mouse myotubes = assay: High content imaging-based cell binding assay; settings: Table 11-1, C2C12; NB = no binding detected
Source text: as §1, with “ATCC). The HEK293HZ cell line was maintained in DMEM+10% FBS+1% L-glutamine/penicillin/streptomycin, while HEK293/hCACNG1 and HEK293/mCACNG1 cell lines were maintained in DMEM+10% FBS+1% L-glutamine/penicillin/streptomycin+500 ug/mL G418.” for “ATCC).”
as §2

HEK293/mCACNG1 = target: T1, HEK293/mCACNG1; assay: High content imaging-based cell binding assay; settings: Table 11-1, 293/mCACNG1; NB = no binding detected
Source text: as §1, with “ATCC). The HEK293HZ cell line was maintained in DMEM+10% FBS+1% L-glutamine/penicillin/streptomycin, while HEK293/hCACNG1 and HEK293/mCACNG1 cell lines were maintained in DMEM+10% FBS+1% L-glutamine/penicillin/streptomycin+500 ug/mL G418.” for “ATCC).”
as §2

CACNG1^Hu/Hu myofibers = assay: Antibody binding to single myofibers ex vivo; parameters: species or system mouse; settings: 100 nM antibody, 30 minutes; FIG. 2
Procedure: (§3) Single myofibers were isolated from either wildtype mice, mice that were homozygous for the deletion of CACNG1 (referred to as CACNG1 knockout mice), or mice that were homozygous for the expression of human CACNG1 in place of mouse CACNG1 (referred to as CACNG1^Hu/Hu). The gastrocnemius muscle was removed, collagenase digested, and single myofibers were isolated, washed, and incubated overnight at 37° C. at 5% CO2, in DMEM+10% horse serum. Following overnight incubation, single myofibers were incubated with 100 nM of each CACNG1 antibody or an isotype control antibody for 30 minutes. Myofibers were then washed twice in DMEM+10% horse serum, and subsequently incubated with 10 μg/mL of fluorescent-conjugated secondary antibodies for 30 minutes, washed twice in DMEM+10% horse serum, and then fixed with 4% paraformaldehyde (PFA) for 15 minutes at room temperature. Single fibers were then washed twice with PBS, stained with Hoechst for 5 minutes, washed once more with PBS, then transferred to microscope slides, cover slipped, and imaged using a Zeiss LSM 710 confocal microscope.

[1] = test system: wildtype or CACNG1 knockout myofibers; assay: Antibody binding to single myofibers ex vivo; parameters: species or system mouse; settings: 100 nM antibody, 30 minutes; FIG. 2
Procedure: as §3

human CACNG1 nanodisc = target: T2, human CACNG1 nanodisc (Homo sapiens, UniProt Q06432); assay: Biacore binding kinetics of anti-CACNG1 antibodies to surface-captured human CACNG1 nanodisc; settings: 25° C., 1:1 binding model
T2 construct: PΔΔCt RE (C); Flag (C)
Procedure: This Example relates to evaluation of binding kinetics of purified anti-CACNG1 antibodies described herein to a human CACNG1 nanodisc capture surface using real-time surface plasmon resonance biosensor technology with a Biacore T200 instrument.
Equilibrium dissociation constants (KD values) for nanodisc embedded human CACNG1 expressed with a C-terminal […] tag (human CACNG1 nanodisc; concentration 0.82 mg/ml) binding to purified anti-CACNG1 antibodies were determined using a real-time surface plasmon resonance biosensor technology with a Biacore T200 instrument. The CM5 Biacore sensor surface was derivatized by amine coupling with a monoclonal mouse anti-His antibody (Cytiva; Marlborough, MA). All Biacore binding studies were performed in a buffer composed of 0.01M HEPES, 0.15M NaCl, 1 mM CaCl2, 0.5 mM MgCl2, pH 7.4 (HBS-N++ running buffer). […]
The specific SPR-Biacore sensorgrams were obtained by a double referencing procedure. […] Kinetic association (ka) and dissociation […] rate constants were determined by fitting the real-time sensorgrams to a 1:1 binding model using Scrubber v2.0c curve fitting software. Binding dissociation equilibrium constants (KD) and dissociative half-lives (t %) were calculated from the kinetic rate constants as: […]

T2 sequence (Q06432 whole entry): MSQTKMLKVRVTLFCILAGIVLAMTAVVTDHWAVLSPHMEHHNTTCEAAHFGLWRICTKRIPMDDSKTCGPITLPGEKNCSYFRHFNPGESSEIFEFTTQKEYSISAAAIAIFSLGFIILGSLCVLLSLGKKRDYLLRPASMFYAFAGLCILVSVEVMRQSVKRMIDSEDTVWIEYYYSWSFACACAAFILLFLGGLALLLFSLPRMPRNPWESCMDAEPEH

| Molecule | % KILL (HEK293) [%] | EC50 (HEK293 Hz) [nM] | EC50 (C2C12 mouse myotubes) [nM] | EC50 (HEK293/mCACNG1) [nM] | binding to CACNG1^Hu/Hu myofibers ex vivo (CACNG1^Hu/Hu myofibers) | binding to wildtype or CACNG1 knockout myofibers [1] | ka (human CACNG1 nanodisc) [M⁻¹ s⁻¹] | kd (human CACNG1 nanodisc) [s⁻¹] |
| --- | --- | --- | --- | --- | --- | --- | --- | --- |
| B1 | 0.0 | > 100 | > 100 | > 100 | demonstrated binding | did not bind |  |  |
| B2 |  |  |  |  |  |  | 342000 | 0.000406 |
